Results on twelve molecules are retold here after US20060234285A1 (Human Genome Sciences, published 2006).

To fix the notation:
T1: TNF-gamma-beta, full length, on transfected cells (human, UniProt O95150 1-251)
T1 construct: whole, on cells; also called TL1β
T1 sequence (looked up): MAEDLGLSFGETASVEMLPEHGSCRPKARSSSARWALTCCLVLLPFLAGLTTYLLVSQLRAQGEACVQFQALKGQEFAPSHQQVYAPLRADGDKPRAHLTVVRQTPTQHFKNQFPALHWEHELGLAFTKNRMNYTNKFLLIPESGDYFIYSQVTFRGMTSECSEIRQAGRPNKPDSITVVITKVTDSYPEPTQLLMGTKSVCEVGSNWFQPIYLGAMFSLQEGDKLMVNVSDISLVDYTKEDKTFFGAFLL

T2: Murine FasL on transfected murine L929 cells (murine, UniProt P41047 1-279)
T2 sequence (looked up): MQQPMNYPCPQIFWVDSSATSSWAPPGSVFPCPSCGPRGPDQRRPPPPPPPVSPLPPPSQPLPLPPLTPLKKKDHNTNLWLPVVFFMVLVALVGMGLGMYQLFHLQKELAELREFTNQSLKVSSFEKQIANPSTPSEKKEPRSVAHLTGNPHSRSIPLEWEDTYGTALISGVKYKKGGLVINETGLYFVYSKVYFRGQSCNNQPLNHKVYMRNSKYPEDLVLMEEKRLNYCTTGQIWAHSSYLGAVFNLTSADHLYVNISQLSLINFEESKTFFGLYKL

T3: sFas ligand (Alexis Corporation) with a FLAG epitope tag at its N-terminus (human, UniProt P48023 103-281)
T3 sequence (looked up): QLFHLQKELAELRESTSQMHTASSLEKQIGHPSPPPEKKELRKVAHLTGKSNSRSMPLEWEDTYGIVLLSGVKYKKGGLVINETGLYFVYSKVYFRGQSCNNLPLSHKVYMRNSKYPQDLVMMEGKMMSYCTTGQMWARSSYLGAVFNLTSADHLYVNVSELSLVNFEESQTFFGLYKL

T4: TNFR-6 alpha-(His) (human, UniProt O95407 30-300)
T4 construct: also called TNFR-6α; DcR3
T4 sequence: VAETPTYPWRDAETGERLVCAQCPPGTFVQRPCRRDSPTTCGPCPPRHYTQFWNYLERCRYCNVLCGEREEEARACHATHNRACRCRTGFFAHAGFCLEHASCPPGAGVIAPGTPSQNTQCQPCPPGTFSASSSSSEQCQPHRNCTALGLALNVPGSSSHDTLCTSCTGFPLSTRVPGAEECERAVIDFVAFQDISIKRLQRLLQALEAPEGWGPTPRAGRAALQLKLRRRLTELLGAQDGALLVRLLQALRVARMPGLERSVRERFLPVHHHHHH

T5: Full-length human TR6 (without Fc) (human, UniProt O95407 30-300)
T5 construct: Full-length cDNA expressed in Sf9 cells with the natural leader; also called TR6 non-Fc; TR6-non-Fc
T5 sequence: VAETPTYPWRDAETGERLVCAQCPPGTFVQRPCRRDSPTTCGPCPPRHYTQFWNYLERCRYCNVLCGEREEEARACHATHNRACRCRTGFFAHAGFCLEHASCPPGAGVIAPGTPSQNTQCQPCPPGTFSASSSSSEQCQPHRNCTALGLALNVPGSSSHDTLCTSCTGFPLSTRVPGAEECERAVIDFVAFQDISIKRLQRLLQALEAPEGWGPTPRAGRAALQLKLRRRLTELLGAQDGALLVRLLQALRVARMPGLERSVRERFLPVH

T6: FLAG-tagged soluble form of TNF-gamma-beta (aa 72-251) (human, UniProt O95150 72-251)
T6 construct: also called FLAG-TL1β; FLAG-TNF-gamma-beta
T6 sequence (looked up): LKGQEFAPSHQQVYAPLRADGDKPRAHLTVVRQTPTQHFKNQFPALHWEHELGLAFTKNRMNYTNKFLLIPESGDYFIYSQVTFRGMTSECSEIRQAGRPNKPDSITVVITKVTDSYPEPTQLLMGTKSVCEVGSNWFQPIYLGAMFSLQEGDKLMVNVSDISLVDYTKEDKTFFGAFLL

B1: OPG-Fc (Fc fusion, UniProt O00300 22-201, looked up, not shown: a dimerising Fc or GST)
chain: ETFPPKYLHYDEETSHQLLCDKCPPGTYLKQHCTAKWKTVCAPCPDHYYTDSWHTSDECLYCSPVCKELQYVKQECNRTHNRVCECKEGRYLEIEFCLKHRSCPPGFGVVQAGTPERNTVCKRCPDGFFSNETSSKAPCRKHTNCSVFGLLLTQKGNATHDNICSGNSESTQKCGIDVTL
notes: extracellular domain
B2: TNFR-6 alpha-Fc fusion protein (full length TNFR-6 alpha, amino acids 1-300 of SEQ ID NO:2, fused to the Fc domain of human IgG1) (Fc fusion, not shown: a dimerising Fc or GST)
chain: T5 sequence
B3: AIM-II, full sequence, on stably transfected HEK 293 EBNA cells (ligand, UniProt O43557 1-240, looked up)
chain: MEESVVRPSVFVVDGQTDIPFTRLGRSHRRQSCSVARVGLGLLLLLMGAGLAVQGWFLLQLHWRLGEMVTRLPDGPAGSWEQLIQERRSHEVNPAAHLTGANSSLTGSGGPLLWETQLGLAFLRGLSYHDGALVVTKAGYYYIYSKVQLGGVGCPLGLASTITHGLYKRTPRYPEELELLVSQQSPCGRATSSSRVWWDSSFLGGVVHLEAGEKVVVRVLDERLVRLRDGTRSYFGAFMV
notes: whole, on cells
B4: DcR2-Fc (Fc fusion, UniProt Q9UBN6 56-211, looked up, not shown: a dimerising Fc or GST)
chain: ATIPRQDEVPQQTVAPQQQRRSLKEEECPAGSHRSEYTGACNPCTEGVDYTIASNNLPSCLLCTVCKSGQTNKSSCTTTRDTVCQCEKGSFQDKNSPEMCRTCRTGCPRGMVKVSNCTPRSDIKCKNESAASSTGKTPAAEETVTTILGMLASPYH
notes: extracellular domain
B5: Soluble human FLAG-FasL (synthesized at HGS) (ligand, UniProt P48023 130-281, looked up, not shown: small tags and cut ends)
chain: QIGHPSPPPEKKELRKVAHLTGKSNSRSMPLEWEDTYGIVLLSGVKYKKGGLVINETGLYFVYSKVYFRGQSCNNLPLSHKVYMRNSKYPQDLVMMEGKMMSYCTTGQMWARSSYLGAVFNLTSADHLYVNVSELSLVNFEESQTFFGLYKL
notes: called trimerized in the kinetic BIAcore run; cross-linked with FLAG antibody in the cell assays; also called FasL-Flag; trimerized FLAG-FasL
B6: TACI-Fc (extracellular domain of human TAC1, aa 1-159, fused to the Fc domain of human IgG1) (Fc fusion, UniProt O14836 1-159, looked up, not shown: a dimerising Fc or GST)
chain: MSGLGRSRRGGRSRVDQEERFPQGLWTGVAMRSCPEEQYWDPLLGTCMSCKTICNHQSQRTCAAFCRSLSCRKEQGKFYDHLLRDCISCASICGQHPKQCAYFCENKLRSPVNLPPELRRQRSGEVENNSDNSGRYQGLEHRGSEASPALPGLKLSADQ
notes: range 1-159; also called TAC1-Fc
B7: OX40-Fc (Fc fusion, UniProt P43489 29-214, looked up, not shown: a dimerising Fc or GST)
chain: LHCVGDTYPSNDRCCHECRPGNGMVSRCSRSQNTVCRPCGPGFYNDVVSSKPCKPCTWCNLRSGSERKQLCTATQDTVCRCRAGTQPLDSYKPGVDCAPCPPGHFSPGDNQACKPWTNCTLAGKHTLQPASNSSDAICEDRDPPATQPQETQGPPARPITVQPTEAWPRTSQGPSTRPVEVPGGRA
notes: extracellular domain
B8: Extra-cellular portion of FasL (Oncogene Research Products), amino acids 103-281 (ligand, human, UniProt P48023 103-281, looked up)
chain: T3 sequence (looked up)
notes: range 103-281; Immobilised on a BIAcore chip (2020 RU); also called immobilized FasL
B9: RANK-Fc (Fc fusion, UniProt Q9Y6Q6 30-212, looked up, not shown: a dimerising Fc or GST)
chain: IAPPCTSEKHYEHLGRCCNKCEPGKYMSSKCTTTSDSVCLPCGPDEYLDSWNEEDKCLLHKVCDTGKALVAVVAGNSTTPRRCACTAGYHWSQDCECCRRNTECAPGLGAQHPLQLNKDTVCKPCLAGYFSDAFSSTDKCRPWTNCTFLGKRVEHHGTEKSDAVCSSSLPARKPPNEPHVYLP
notes: extracellular domain
B10: AITR-Fc (Fc fusion, UniProt Q9Y5U5 26-162, looked up, not shown: a dimerising Fc or GST)
chain: QRPTGGPGCGPGRLLLGTGTDARCCRVHTTRCCRDYPGEECCSEWDCMCVQPEFHCGDPCCTTCRHHPCPPGQGVQSQGKFSFGFQCIDCASGTFSGGHEGHCKPWTDCTQFGFLTVFPGNKTHNAVCVPGSPPAEP
notes: extracellular domain
B11: DcR1-Fc (Fc fusion, UniProt O14798 26-236, looked up, not shown: a dimerising Fc or GST)
chain: ATTARQEEVPQQTVAPQQQRHSFKGEECPAGSHRSEHTGACNPCTEGVDYTNASNNEPSCFPCTVCKSDQKHKSSCTMTRDTVCQCKEGTFRNENSPEMCRKCSRCPSGEVQVSNCTSWDDIQCVEEFGANATVETPAAEETMNTSPGTPAPAAEETMNTSPGTPAPAAEETMTTSPGTPAPAAEETMTTSPGTPAPAAEETMITSPGTPA
notes: extracellular domain
B12: TNFR1-Fc (Fc fusion, UniProt P19438 30-211, looked up, not shown: a dimerising Fc or GST)
chain: LVPHLGDREKRDSVCPQGKYIHPQNNSICCTKCHKGTYLYNDCPGPGQDTDCRECESGSFTASENHLRHCLSCSKCRKEMGQVEISSCTVDRDTVCGCRKNQYRHYWSENLFQCFNCSLCLNGTVHLSCQEKQNTVCTCHAGFFLRENECVSCSNCKKSLECTKLCLPQIENVKGTEDSGTT
notes: extracellular domain; also called TNFRLFc

For experiment [1], the target named is T1, TNF-gamma-beta, full length, on …. Nature of the experiment: flow cytometry on HEK293F cells expressing full length TNF-gamma-beta. As to the method: One million cells, in 0.1 ml of FACS buffer (PBS, 0.1% BSA, 0.1% NaN₃), were incubated with 0.1-1 microgram of protein or antibody at RT for 15 min. The cells were washed with 3 ml of FACS buffer, reacted with biotinylated primary antibody, and stained with PE-conjugated secondary antibody at RT for 15 min. Cells were then washed again, resuspended in 0.5 microgram/ml of propidium iodide, and live cells were gated and analyzed on a FACScan using the CellQuest software (BD Biosciences).
(A flow cytometer gives signals particle by particle.)

The target in experiment [2] is B5. In words: cell-based or functional assay.
Experiment [3] concerns the target T2, Murine FasL on transfected murine L929 …. In words: cell-based or functional assay.
The target in experiment [4] is T3, sFas ligand (Alexis Corporation) with a …. Nature of the experiment: cell-based or functional assay.
Experiment [5] deals with T4, TNFR-6 alpha-(His). In words: flow cytometry on AIM-II-transfected HEK 293 EBNA cells.
In experiment [6] the target is T5, Full-length human TR6 (without Fc). In words: BIAcore, FasL-Flag soluble. (In general: Surface plasmon resonance follows binding to a sensor surface in real time, without labels.)
Experiment [7] concerns the target B2. Nature of the experiment: BIAcore, TR6-Fc immobilized, trimerized FLAG-FasL soluble.
Experiment [8] has as its target T6, FLAG-tagged soluble form of …. In words: coimmunoprecipitation with protein A-Sepharose, anti-Flag western blot. The text has this:
The beads were then precipitated and washed extensively with PBST buffer (PBS, 0.5% Triton X-100) before boiled in SDS-sample buffer. Proteins were resolved on 4-20% Tris-Glycine gels (NOVEX), transferred to nitrocellulose membranes, and blotted with anti-Flag M2 monoclonal antibody (1 microgram/ml, Sigma) and horseradish peroxidase (HRP)-conjugated goat anti-mouse IgG antibody (0.5 microgram/ml).

Experiment [9] addresses B2. In words: BIAcore.

As for B1, the binding result in [1] is given as “no binding”.

For the molecule B2, the “potency against FasL-induced Jurkat cytotoxicity relative to Fas-Fc” value in experiment [2] was 100 fold. Besides, in experiment [3], the “IC50 of inhibition of killing of A20 target cells by murine FasL-transfected L929 cells” value was approximately 1 ng/mL. Also, the “IC50 (read off the curve): TR6Fc concentration giving half rescue of Jurkat viability from sFasL 20 ng (Alamar blue, OD 570 nm - 630 nM)” value in experiment [4] was approximately 5 ng/mL.

On to B3, for which the binding result in [5] is on record as “binds”.

Consider B4, for which the binding result in experiment [1] was “no binding”.

A word on the Kd: it is the free concentration of one partner at which half of the binding sites on the other are occupied at equilibrium, for simple one-to-one binding. A low value points to tighter binding. B5: the results for the Kd in [6] and in [7] were 17 nM and 4.6 nM, respectively.

With B6, the binding result in experiment [1] and in experiment [8] was “no binding” each time.

As for B7, the binding result in [1] is on record as “no binding”.

For B8, the binding result in experiment [9] is “binds”.

Regarding B9, in experiment [1], the binding result is “no binding”.

Regarding B10, the binding result in experiment [1] is “no binding”.

For B11, the binding result in [1] was “no binding”.

In the case of B12, the binding result in [1] is “no binding”.
